Source: patent US20210032351A1 (XDCEXPLORER SHANGHAI, published 2021)
Ends that are not written are not given here. * marks the point of attachment. Biotin = O=C1N[C@H]2[C@H](CS[C@H]2CCCCC(=O)*)N1

T1: pep21
T1 peptide: GADSYEMEEDGVRKCKK(Biotin)

T2: pep33 (cysteine pairing not given here)
T2 peptide: RKCKKCEGPCRKVCNGK(Biotin)

T3: pep08 (cysteine pairing not given here)
T3 peptide: YVVTDHGSCVRACGADK(Biotin)

T4: pep13 (cysteine pairing not given here)
T4 peptide: HGSCVRACGADSYEMEK(Biotin)

T5: pep18
T5 peptide: RACGADSYEMEEDGVRK(Biotin)

T6: pep35 (cysteine pairing not given here)
T6 peptide: CKKCEGPCRKVCNGIGK(Biotin)

B1: Murine anti-75G7 (antibody, V domains shown)
VH: EVQLQQSGPELVKPGASVKIPCKASGYTFTDYNMDWVKQSHGKSLEWIGDINPNNGDTIYNQKFKGKATLTVDKSSSTAYMELRSLTSEDTAVYYCARGDYDGYYPVYYAMDYWGQGTSVTVSS
VL: ENVLTQSPAIMSASPGEKVTMTCRASSSVSSSYLHWYQQKSGASPKLWIFSTSNLAAGVPARFSGSGSGTSYSLTVSSVEAEDAATYYCQQYSGYPLTFGAGTKLELK
notes: murine hybridoma antibody; also called 75G7C6
B2: Chimeric antibody 75G7 (antibody, human IgG1, V domains shown)
VH: B1 VH
VL: B1 VL
notes: also called c75G7C6; chimeric antibody c75G7C6

Assays:
pep21 = biological target: T1, pep21; experiment: polypeptide dot matrix ELISA
pep33 = biological target: T2, pep33; experiment: polypeptide dot matrix ELISA
pep08 = biological target: T3, pep08; experiment: polypeptide dot matrix ELISA
pep13 = biological target: T4, pep13; experiment: polypeptide dot matrix ELISA
pep18 = biological target: T5, pep18; experiment: polypeptide dot matrix ELISA
pep35 = biological target: T6, pep35; experiment: polypeptide dot matrix ELISA
[1] = biological target: T7, human EGFRvIII-hFc protein (human, UniProt P00533 25-645); experiment: ELISA, coated EGFRvIII-hFc, antibody 0.001 nM
T7 construct: extracellular domain; made in HEK293 cells, purified on protein A; also called immunogen A; hFc-tagged EGFRvIII protein; not shown: human IgG Fc fragment (hFc) of the pCpC vector
Method in brief: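 Coat: EGFRvIII-hFc 1.0 μg/mL, 4° C o/n. Block: 1% BSA/PBS-Tween, 2 h RT. Ab 2 h 37° C; HRP 2° Ab 2 h 37° C. TMB 30 min, HCl stop, A450.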

[2] = biological target: T8, human EGFR protein (wild-type), on cells (human, UniProt P00533 25-1210); experiment: FACS on A431 cells (wild-type EGFR), Alexa 488 secondary antibody, mean fluorescence intensity
T8 construct: whole, on cells; transfected on CHO-K1 cells; endogenous on the human cell lines; the cell is named under assay; also called wild-type EGFR; hEGFR
Experimental: (§1) The cells are washed twice with the HBSS buffer and are counted, and then the cells are diluted with the HBSS buffer to 2×10⁶ cells/ml, added with 1% goat serum blocking solution, with the percentage being the mass percentage, and incubated on ice for 30 minutes, and then centrifugally washed twice with the HBSS buffer. The collected cells are suspended to 2×10⁶ cells/mL with an FACS buffer (HBSS+1% BSA, with the percentage being the mass percentage), added to a 96-well FACS reaction plate at 100 μL/well, then added with 100 μL/well of the purified EGFRvIII antibody (samples to be tested) obtained in example 2, and incubated on ice for 2 hours. The plate is centrifugally washed twice with the FACS buffer, added with 100 μL/well of a fluorescence (Alexa 488) labeled secondary antibody (purchased from Invitrogen), and then incubated on ice for 1 hour. […] The cells are suspended in 100 μL of the FACS buffer, and the results are detected and analyzed by FACS (FACS Calibur, purchased from BD). Data analysis is performed by using the software (CellQuest) to obtain the mean fluorescence intensity (MFI) of the cells. Data is further analyzed by using the software (GraphPad Prism5) to perform data fitting and calculate EC50. […]

[3] = biological target: T9, human EGFRvIII-hFc protein (human, UniProt P00533 25-645); experiment: ELISA, EGFRvIII-hFc coated
T9 construct: extracellular domain; also called immunogen A; hFc-tagged EGFRvIII protein; not shown: human IgG Fc fragment (hFc) of the pCpC vector

[4] = biological target: T10, human wild-type EGFR protein on the cell surface (human, UniProt P00533 25-1210); experiment: FACS on CHOk1-EGFR cells; CHOk1-EGFR cells (recombinant EGFR expression)
T10 construct: whole, on cells; Endogenous on A431, HEB, U87MG cells and normal human primary hepatocytes; transfected on CHOk1-EGFR cells; The cell is named under assay; also called A431; HEB
Experimental: as §1

Row | Binder | binding result (pep21) | binding result (pep33) | binding result (pep08) | binding result (pep13) | binding result (pep18) | binding result (pep35) | OD450 nm [1] | EC50 (read off the curve) [2] [nM] | EC50 [3] [nM] | Maximum OD450 value [3] [OD450] | OD450 nm at 0.0001 nM antibody [3] [OD450] | OD450 nm at 0.001 nM antibody [3] [OD450] | OD450 nm at 0.01 nM antibody [3] [OD450] | OD450 nm at 0.1 nM antibody [3] [OD450] | OD450 nm at 1 nM antibody [3] [OD450] | OD450 nm at 10 nM antibody [3] [OD450] | OD450 nm at 100 nM antibody [3] [OD450] | EC50 [4] [nM]
1 | B1 | no binding | no binding | no binding | no binding | no binding | no binding | 0.07 | ~10 |  |  |  |  |  |  |  |  |  | 
2 | B2 |  |  |  |  |  |  |  |  | 0.02 | 3.03 | 0.07 | 0.08 | 0.15 | 0.65 | 2.69 | 3.41 | 3.44 | 14.2
